The text below walks through data of US6306832, “Peptide antiestrogen compositions and methods for treating breast cancer” (University of California).

In this series the target is estrogen receptor alpha (ER), purified recombinant (Homo sapiens, UniProt P03372 P03372:1-595). In words: EMSA; 60 nM ER, 100 nM estradiol, HEPES pH 7.5, 100 mM KCl, 1 mM EDTA, poly(dI-dC), 4 C; competed by 100x unlabelled ERE; blocked by 0.5 uM pY8/pY10/mY8 peptides, not by conY. Particulars: tags: Panvera (Madison, WI); chain copies: 2 (homodimer, stated); label: 32P 5'-end (polynucleotide kinase). On the procedure: FIG. 6B. Purified human ER (60 nM) was incubated with control solution (CON), a 100-fold molar excess of unlabelled ERE (100 ERE) or with peptides at 250 nM or 500 nM. ER was incubated with peptides for 15 min at 4° C. followed by addition of 100 nM estradiol-17β and ^32P-ERE. Peptides included phosphotyrosyl-octapeptide (pY8), control non-phosphorylated octapeptide (conY), malonyltyrosyl-octapeptide(mY8), phosphotyrosine amino acid alone (pY), as an additional control, and a phosphotyrosyl-decapeptide, N-Val-Pro-Leu-pTyr-Asp-Leu-Leu-Leu-Glu-Met-C (pYl 0) (SEQ ID NO:3). Although not shown, the effect of conY at 500 nM was the same as that shown at a concentration of 250 nM.
estrogen receptor alpha (ER), purified recombinant, sequence (P03372 whole entry, one chain of several): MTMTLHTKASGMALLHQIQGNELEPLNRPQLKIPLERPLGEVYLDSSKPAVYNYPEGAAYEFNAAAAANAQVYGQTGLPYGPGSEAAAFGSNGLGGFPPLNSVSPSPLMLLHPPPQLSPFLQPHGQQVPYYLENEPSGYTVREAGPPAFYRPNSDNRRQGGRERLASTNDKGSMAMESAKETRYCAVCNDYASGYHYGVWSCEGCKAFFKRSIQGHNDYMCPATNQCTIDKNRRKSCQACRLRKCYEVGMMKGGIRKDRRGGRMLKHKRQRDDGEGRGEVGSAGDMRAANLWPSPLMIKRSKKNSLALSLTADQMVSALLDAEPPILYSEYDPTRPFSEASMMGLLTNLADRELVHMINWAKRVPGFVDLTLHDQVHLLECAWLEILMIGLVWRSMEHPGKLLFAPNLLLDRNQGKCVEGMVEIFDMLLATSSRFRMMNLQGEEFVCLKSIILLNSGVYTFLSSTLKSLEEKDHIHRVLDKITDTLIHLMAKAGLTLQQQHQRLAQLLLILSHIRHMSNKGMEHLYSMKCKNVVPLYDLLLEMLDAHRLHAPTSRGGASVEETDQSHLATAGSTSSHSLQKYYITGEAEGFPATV
Interaction of ER with nuclear ERE is prerequisite for activation of transcription. To assess the specific binding of ER with ERE, purified recombinant human ER from MCF-7 breast cancer cells were used. A double-stranded 27-bp probe (5'-[…]-3') (SEQ ID NO:12) encoding the Xenopus vitellogenin A_2 ERE was ^32P-end-labeled with polynucleotide kinase. Gel mobility shift assays for the human ER were performed as described (Arnold et al., 1995a; Arnold and Notides, 1995; Arnold et al., 1995b). […]

B1: vitellogenin A2 ERE 27-bp probe (dsDNA)
DNA 1: GATCCTAGAGGTCACAGTGACCTACGA
DNA 2: TCGTAGGTCACTGTGACCTCTAGGATC
For B1, the binding result is “binds”.
